# B1: cdr2 201-209 TVTMLQAQL (peptide)
# peptide: TVTMLQAQL
# B2: cdr2 176-184 VFAEKITSL (peptide)
# peptide: VFAEKITSL
# B3: cdr2 203-211 TMLQAQLSL (peptide)
# peptide: TMLQAQLSL
# B4: cdr2 111-119 KILSLTETI (peptide)
# peptide: KILSLTETI
# B5: cdr2 164-172 LYDLRQHFV (peptide)
# peptide: LYDLRQHFV
# B6: cdr2 120-128 ECLQTNIDH (peptide)
# peptide: ECLQTNIDH
# B7: cdr2 225-233 LVLKENSEL (peptide)
# peptide: LVLKENSEL
# B8: cdr2 65-73 YLTKQVELL (peptide)
# peptide: YLTKQVELL
# B9: cdr2 419-427 PPEYKALFK (peptide)
# peptide: PPEYKALFK
# B10: cdr2 300-308 ESHRKPLKR (peptide)
# peptide: ESHRKPLKR
# B11: cdr2 415-423 SPTTPPEYK (peptide)
# peptide: SPTTPPEYK
# B12: cdr2 60-68 LQEIEYLTK (peptide)
# peptide: LQEIEYLTK
# B13: cdr2 66-74 LTKQVELLR (peptide)
# peptide: LTKQVELLR
# B14: cdr2 429-437 IFSCIKKTK (peptide)
# peptide: IFSCIKKTK
# B15: cdr2 427-435 KEIFSCIKK (peptide)
# peptide: KEIFSCIKK
# B16: cdr2 379-387 VQTSRAAAK (peptide)
# peptide: VQTSRAAAK
# B17: cdr2 74-82 RQMNEQHAK (peptide)
# peptide: RQMNEQHAK
# B18: cdr2 103-111 ADSKASQQK (peptide)
# peptide: ADSKASQQK
# B19: cdr2 129-137 LQSQVEELK (peptide)
# peptide: LQSQVEELK
# B20: cdr2 276-284 PDSLYVPFK (peptide)
# peptide: PDSLYVPFK
# B21: cdr2 357-365 KVKYEELLK (peptide)
# peptide: KVKYEELLK
# B22: cdr2 238-246 GATGAYRAR (peptide)
# peptide: GATGAYRAR
# B23: cdr2 317-325 SLAGSDIVK (peptide)
# peptide: SLAGSDIVK
# B24: cdr2 401-409 SGWELASVN (peptide)
# peptide: SGWELASVN
# B25: cdr2 140-148 GQGRRSPGK (peptide)
# peptide: GQGRRSPGK
# B26: cdr2 229-237 ENSELEQQL (peptide)
# peptide: ENSELEQQL
# B27: cdr2 418-426 TPPEYKALF (peptide)
# peptide: TPPEYKALF
# B28: cdr2 444-452 RTKYRSLSS (peptide)
# peptide: RTKYRSLSS
# B29: cdr2 298-306 VPESHRKPL (peptide)
# peptide: VPESHRKPL
# B30: cdr2 153-161 KPAPSFACL (peptide)
# peptide: KPAPSFACL
# B31: cdr2 381-389 TSRAAAKDL (peptide)
# peptide: TSRAAAKDL
# B32: cdr2 68-76 KQVELLRQM (peptide)
# peptide: KQVELLRQM
# B33: cdr2 275-283 VPDSLYVPF (peptide)
# peptide: VPDSLYVPF
# B34: cdr2 30-38 LAAELGKTL (peptide)
# peptide: LAAELGKTL
# B35: cdr2 253-261 EVAEMRQML (peptide)
# peptide: EVAEMRQML
# B36: cdr2 265-273 HPFVNGVEK (peptide)
# peptide: HPFVNGVEK
# B37: cdr2 154-162 PAPSFACLK (peptide)
# peptide: PAPSFACLK
# B38: cdr2 331-339 CIRRAKAVK (peptide)
# peptide: CIRRAKAVK
# B39: cdr2 352-360 QYSALKVKY (peptide)
# peptide: QYSALKVKY
# B40: cdr2 169-177 QHFVYDHVF (peptide)
# peptide: QHFVYDHVF
# B41: cdr2 173-181 YDHVFAEKI (peptide)
# peptide: YDHVFAEKI
# B42: cdr2 316-324 SSLAGSDIV (peptide)
# peptide: SSLAGSDIV
# B43: cdr2 271-279 VEKLVPDSL (peptide)
# peptide: VEKLVPDSL
# B44: cdr2 79-87 QHAKVYEQL (peptide)
# peptide: QHAKVYEQL
# Target: T1, HLA-A*0201 (human)
# T1 construct: also called HLA-A2.1; HLA A2.1
# Experiment: iTopia net score
row,iScore,Binder
1,0.132,B1
2,0.106,B2
3,0.811,B3
4,0.512,B4
5,0.199,B5
6,0.178,B6
7,0.119,B7
8,0.645,B8

# Target: HLA-A*1101 (human)
# Experiment: iTopia affinity
row,ED50,Binder
1,26 µM,B9
2,26 µM,B10
3,20 µM,B11
4,62 µM,B12
5,7.9 µM,B13
6,12 µM,B14
7,7 µM,B15
8,4.6 µM,B16
9,11 µM,B17
10,56 µM,B18
11,24 µM,B19
12,25 µM,B20
13,1.2 µM,B21
14,19 µM,B22
15,2.1 µM,B23
16,31 µM,B24
17,2 µM,B25

# Target: HLA-B*0702 (human)
# Experiment: iTopia net score
row,iScore,Binder
1,0.05,B26
2,0.027,B27
3,0.031,B28
4,0.22,B29
5,0.205,B30
6,0.067,B31
7,0.055,B32
8,0.068,B33
9,0.054,B7
10,0.052,B34
11,0.077,B35

# Target: HLA-B*0702 (human)
# Experiment: iTopia affinity
row,ED50,Binder
1,93 µM,B26
2,100 µM,B27
3,73 µM,B28
4,9.9 µM,B29
5,5.5 µM,B30
6,18 µM,B31
7,180 µM,B32
8,47 µM,B33
9,34 µM,B7
10,33 µM,B34
11,18 µM,B35

# Target: HLA-A*0301 (human)
# Experiment: iTopia affinity
row,ED50,Binder
1,19 µM,B10
2,34 µM,B36
3,13 µM,B15
4,18 µM,B16
5,58 µM,B17
6,11 µM,B37
7,14 µM,B38
8,11 µM,B23
9,7.8 µM,B25

# Target: HLA-A*1101 (human)
# Experiment: iTopia net score
row,iScore,Binder
1,0.058,B9
2,0.063,B10
3,0.136,B11
4,0.048,B12
5,0.238,B13
6,0.088,B14
7,0.392,B15
8,0.343,B16
9,0.396,B17
10,0.054,B18
11,0.103,B19
12,0.063,B20
13,0.22,B21
14,0.056,B22
15,0.283,B23
16,0.059,B24
17,0.633,B25

# Target: HLA-A*2402 (human)
# Experiment: iTopia off-rate
row,t1/2,Binder
1,0.35,B39
2,0.59,B1
3,0.21,B40
4,0.78,B2
5,1.16,B14
6,0.25,B3
7,0.82,B4
8,0.46,B27
9,0.75,B41
10,1.32,B42
11,1.26,B33
12,0.27,B5
13,1.02,B43
14,0.72,B6
15,0.22,B8
16,0.25,B44

# Target: T1, HLA-A*0201
# Experiment: iTopia binding;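 further: each peptide tested for binding to HLA-A2 molecules immobilized on plates, using a commercial screening kit run per its supplied protocol and reagents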
row,binding vs positive control,Binder
1,> 30%,B1
2,> 30%,B2
3,> 30%,B3
4,> 30%,B4
5,> 30%,B5
6,> 30%,B6
7,> 30%,B7
8,> 30%,B8

# Target: HLA-B*0702 (human)
# Experiment: iTopia off-rate
row,t1/2,Binder
1,1.13,B26
2,1.26,B27
3,1.83,B28
4,1.33,B29
5,1.29,B30
6,1.19,B31
7,1.15,B32
8,0.58,B33
9,0.49,B7
10,0.5,B34
11,0.74,B35

# Target: HLA-A*2402 (human)
# Experiment: iTopia net score
row,iScore,Binder
1,0.098,B39
2,0.062,B1
3,0.097,B40
4,0.446,B2
5,0.108,B14
6,0.117,B3
7,0.261,B4
8,0.084,B27
9,0.089,B41
10,0.081,B42
11,0.116,B33
12,0.157,B5
13,0.092,B43
14,0.095,B6
15,0.107,B8
16,0.058,B44

# Target: HLA-A*1101 (human)
# Experiment: iTopia off-rate
row,t1/2,Binder
1,0.31,B9
2,0.35,B10
3,1.78,B11
4,0.68,B12
5,1.56,B13
6,0.92,B14
7,3.74,B15
8,1.5,B16
9,3.85,B17
10,0.51,B18
11,1.1,B19
12,0.41,B20
13,2.26,B21
14,0.3,B22
15,0.74,B23
16,0.8,B24
17,2.8,B25

# Target: T1, HLA-A*0201
# Experiment: iTopia affinity
row,ED50,Binder
1,3 µM,B1
2,5 µM,B2
3,0.8 µM,B3
4,7 µM,B4
5,0.5 µM,B5
6,30 µM,B6
7,7 µM,B7
8,2 µM,B8

# Target: HLA-A*0301 (human)
# Experiment: iTopia net score
row,iScore,Binder
1,0.147,B10
2,0.05,B36
3,0.231,B15
4,0.279,B16
5,0.147,B17
6,0.122,B37
7,0.436,B38
8,0.14,B23
9,0.258,B25

# Target: HLA-A*0301 (human)
# Experiment: iTopia off-rate
row,t1/2,Binder
1,1.49,B10
2,0.61,B36
3,5.82,B15
4,2.55,B16
5,3.69,B17
6,2.19,B37
7,6.47,B38
8,0.88,B23
9,1.64,B25

# Target: T1, HLA-A*0201
# Experiment: iTopia off-rate
row,t1/2,Binder
1,0.6,B1
2,0.4,B2
3,9.8,B3
4,10.5,B4
5,0.4,B5
6,5.4,B6
7,0.8,B7
8,8.1,B8

# Target: HLA-A*2402 (human)
# Experiment: iTopia affinity
row,ED50,Binder
1,3.1 µM,B39
2,43 µM,B1
3,3.1 µM,B40
4,0.26 µM,B2
5,8.6 µM,B14
6,0.7 µM,B3
7,1.5 µM,B4
8,11 µM,B27
9,18 µM,B41
10,43 µM,B42
11,9.2 µM,B33
12,1.6 µM,B5
13,8.8 µM,B43
14,18 µM,B6
15,1.9 µM,B8
16,10 µM,B44
